# Reference: patent US20210388087A1 (Chugai, published 2021)
# Numbering of substitutions follows the chain as printed. Names may count otherwise.
# T1: Human CD3eg linker (human)
# T1 construct: Single chain: epsilon and gamma subunits of human CD3 joined by a 29-mer linker, Flag-tag at the C-terminus; also called recombinant human CD3
# T1 chain: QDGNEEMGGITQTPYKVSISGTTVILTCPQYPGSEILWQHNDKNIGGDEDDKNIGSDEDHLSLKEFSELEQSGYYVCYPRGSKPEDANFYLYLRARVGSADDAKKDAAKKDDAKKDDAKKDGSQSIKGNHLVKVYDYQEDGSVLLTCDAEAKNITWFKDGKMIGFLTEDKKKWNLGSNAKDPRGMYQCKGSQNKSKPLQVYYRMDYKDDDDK
# B1: H183/L072 VH K52A (antibody, name in Kabat numbering, V domains shown)
# VH: QVQLVESGGGLVQPGRSLRLSCAASGFTFSNAWMHWVRQAPGKGLEWVAQIADKGNAYAAYYAPSVKGRFTISRDDSKNSIYLQMNSLKTEDTAVYYCHYVHYASASTVLPAFGVDAWGQGTTVTVSS
# VL: DIVMTQSPLSLPVTPGEPASISCQASQELVHMNRNTYLHWYQQKPGQAPRLLIYKVSNRFPGVPDRFSGSGSGTDFTLKISRVEAEDVGVYYCAQGTSVPFTFGQGTKLEIK
# B2: H183/L072 VH K52G (antibody, name in Kabat numbering, V domains shown)
# VH: B1 VH with A52G
# VL: B1 VL
# B3: H183/L072 VH K52Y (antibody, name in Kabat numbering, V domains shown)
# VH: B1 VH with A52Y
# VL: B1 VL
# B4: H183/L072 VH K52bN (antibody, name in Kabat numbering, V domains shown)
# VH: B1 VH with A52K, K54N
# VL: B1 VL
# B5: H183/L072 VH K52bQ (antibody, name in Kabat numbering, V domains shown)
# VH: B1 VH with A52K, K54Q
# VL: B1 VL
# B6: H183/L072 VH K52P (antibody, name in Kabat numbering, V domains shown)
# VH: B1 VH with A52P
# VL: B1 VL
# B7: H183/L072 VH K52W (antibody, name in Kabat numbering, V domains shown)
# VH: B1 VH with A52W
# VL: B1 VL
# B8: H183/L072 VH K52bF (antibody, name in Kabat numbering, V domains shown)
# VH: B1 VH with A52K, K54F
# VL: B1 VL
# B9: H183/L072 VH K52bD (antibody, name in Kabat numbering, V domains shown)
# VH: B1 VH with A52K, K54D
# VL: B1 VL
# B10: H183/L072 VH K52M (antibody, name in Kabat numbering, V domains shown)
# VH: B1 VH with A52M
# VL: B1 VL
# B11: H183/L072 VH K52I (antibody, name in Kabat numbering, V domains shown)
# VH: B1 VH with A52I
# VL: B1 VL
# B12: H183/L072 VH K52N (antibody, name in Kabat numbering, V domains shown)
# VH: B1 VH with A52N
# VL: B1 VL
# B13: H183/L072 VH K52bH (antibody, name in Kabat numbering, V domains shown)
# VH: B1 VH with A52K, K54H
# VL: B1 VL
# B14: H183/L072 VH K52bI (antibody, name in Kabat numbering, V domains shown)
# VH: B1 VH with A52K, K54I
# VL: B1 VL
# B15: H183/L072 VH K52V (antibody, name in Kabat numbering, V domains shown)
# VH: B1 VH with A52V
# VL: B1 VL
# B16: H183/L072 VH K52L (antibody, name in Kabat numbering, V domains shown)
# VH: B1 VH with A52L
# VL: B1 VL
# B17: H183/L072 VH K52bE (antibody, name in Kabat numbering, V domains shown)
# VH: B1 VH with A52K, K54E
# VL: B1 VL
# B18: H183/L072 VH K52R (antibody, name in Kabat numbering, V domains shown)
# VH: B1 VH with A52R
# VL: B1 VL
# B19: H183/L072 VH K52E (antibody, name in Kabat numbering, V domains shown)
# VH: B1 VH with A52E
# VL: B1 VL
# B20: H183/L072 VH K52bG (antibody, name in Kabat numbering, V domains shown)
# VH: B1 VH with A52K, K54G
# VL: B1 VL
# B21: H183/L072 VH K52S (antibody, name in Kabat numbering, V domains shown)
# VH: B1 VH with A52S
# VL: B1 VL
# B22: H183/L072 VH K52Q (antibody, name in Kabat numbering, V domains shown)
# VH: B1 VH with A52Q
# VL: B1 VL
# B23: H183/L072 VH K52bA (antibody, name in Kabat numbering, V domains shown)
# VH: B1 VH with A52K, K54A
# VL: B1 VL
# B24: H183/L072 VH K52bP (antibody, name in Kabat numbering, V domains shown)
# VH: B1 VH with A52K, K54P
# VL: B1 VL
# B25: H183/L072 VH K52T (antibody, name in Kabat numbering, V domains shown)
# VH: B1 VH with A52T
# VL: B1 VL
# B26: H183/L072 VH K52D (antibody, name in Kabat numbering, V domains shown)
# VH: B1 VH with A52D
# VL: B1 VL
# B27: H183/L072 VH K52F (antibody, name in Kabat numbering, V domains shown)
# VH: B1 VH with A52F
# VL: B1 VL
# B28: H183/L072 VH K52H (antibody, name in Kabat numbering, V domains shown)
# VH: B1 VH with A52H
# VL: B1 VL
# B29: H183/L072 VH K52bM (antibody, name in Kabat numbering, V domains shown)
# VH: B1 VH with A52K, K54M
# VL: B1 VL
# B30: H183/L072 VH K52bL (antibody, name in Kabat numbering, V domains shown)
# VH: B1 VH with A52K, K54L
# VL: B1 VL
# B31: H183/L072 VH K52bR (antibody, name in Kabat numbering, V domains shown)
# VH: B1 VH with A52K, K54R
# VL: B1 VL
# Biological target: T1, Human CD3eg linker
# Assay: Biacore SPR, vs template H183/L072
row,Binder,fold change of affinity
1,B1,0 fold
2,B2,0 fold
3,B3,0 fold
4,B4,0.5 fold
5,B5,0.7 fold
6,B6,0 fold
7,B7,0 fold
8,B8,0.4 fold
9,B9,0 fold
10,B10,0.6 fold
11,B11,0 fold
12,B12,0 fold
13,B13,0.7 fold
14,B14,0.8 fold
15,B15,0 fold
16,B16,0 fold

row,Binder,fold change of affinity
1,B17,0.5 fold
2,B18,0.8 fold
3,B19,0 fold
4,B20,0.8 fold
5,B21,0 fold
6,B22,0.3 fold
7,B23,0.7 fold
8,B24,0.5 fold
9,B25,0.5 fold
10,B26,0 fold
11,B27,0 fold
12,B28,0 fold
13,B29,0.5 fold
14,B30,0.6 fold
15,B31,1.2 fold
